Experimental data as given in patent US20220257704A1, “COMBINATION OF CHEMOTHERAPY WITH RECOMBINANT S. ROLFSII LECTIN” (Unichem Laboratories Ltd, priority 2018, published 2022).
Values joined by “and” are separate entries in the source; they are usually repeats but may differ in a detail not shown here. Equal values may be shown once.

Key:
Assay in all cases: MTT cytotoxicity assay, 48 h, alone and in combination (IC50 and Combination Index)
Assay type in all cases: cell-based
T24 cell line = tested on: T24 cell line
Description: (§1) The cell were kept in contact with the recombinant lectin of SEQ ID NO: 1 and the chemotherapy agent for 48 h and the cytotoxic effect (percentage cytotoxicity) was measured. The cytotoxic effect was determined by well-known colorimetric MTT assay (Mossman, T. 1983 Rapid colorimetric assay for cellular growth and survival: application to proliferation and cytotoxicity assays Journal of Immunological Methods, volume 65, pages 55-63) for assessing cell metabolic activity.
(§2) Based on percentage cytotoxicity data, IC50 values were determined using the software GraphPad Prism version 4.01.
(§3) Combination Index (CI) values were determined for each drug concentration combination. The CI values were calculated based on the IC50 values using the formula as given in below.
A study was performed to determine the effect of the concentration of the recombinant lectin represented by SEQ ID NO: 1 on the IC50 of Cisplatin for cytotoxicity in T24 cells. Conversely the effect of the concentration of Cisplatin on the IC50 of the recombinant lectin represented by SEQ ID NO: 1.
Similarly another study was performed for Gemcitabine in combination with the recombinant lectin of SEQ ID NO: 1.
This was performed using the same techniques as in Example 1-1.
In a further study, T24 cells were treated with Cisplatin (1 μM-500 μM) in combination with SEQ ID NO: 1(2.5 μg/mL-80 μg/mL) for 48 h. Similarly another set of cells were treated with Gemcitabine (1 μM-300 μM) in combination with SEQ ID NO: 1 (2.5 μg/mL-80 μg/mL). Combination Index values were determined for each drug combination and resultant antagonistic, additive or synergistic effect was determined, as described in Example 1-2.

HT-29 cell line = tested on: HT-29 cell line
PA-1 cell line = tested on: PA-1 cell line
Description: In a further study, PA-1 cells were treated with Cisplatin(0.01 μM-5 μM) in combination with SEQ ID NO: 1(1 μg/mL-20 μg/mL) for 48 h. Similarly another set of cells were treated with Paclitaxel (0.01 nM-5 nM) in combination with SEQ ID NO: 1 (1 μg/mL-20 μg/mL).

KB cell line = tested on: KB cell line
Description: A study was performed to determine the effect of the concentration of the recombinant lectin represented by SEQ ID NO: 1 on the IC50 of5-FU for cytotoxicity in KB cells.
Similarly another study was performed for Cisplatin in combination with the recombinant lectin of SEQ ID NO: 1.
Similarly another set of cells were treated with Cisplatin(0.1 μM to 1.5 μM)in combination with SEQ ID NO: 1(5.0 μg/mL-90 μg/mL).

PANC-1 cell line = tested on: PANC-1 cell line
Description: The cytotoxic effect on each combination was determined by MTT assay.
as §3

MDA-MB-231 cell line = tested on: MDA-MB-231 cell line
Description: as §1, §2, §3
A study was performed to determine the effect of the concentration of the recombinant lectin represented by SEQ ID NO: 1 on the IC50 of Paclitaxel for cytotoxicity in MDA-MB-231 cells. Conversely the effect of the concentration of Paclitaxel on the IC50 of the recombinant lectin represented by SEQ ID NO: 1.
Similarly another study was performed for Carboplatin in combination with the recombinant lectin of SEQ ID NO: 1.
In a further study, MDA-MB-231 cells were treated with Paclitaxel (0.001 nM-10 nM) in combination with SEQ ID NO: 1(2.5 μg/mL-80 μg/mL) for 48 h. Similarly another set of cells were treated with Carboplatin (10 μM-1000 μM) in combination with SEQ ID NO: 1 (2.5 μg/mL-80 μg/mL).

[1] = in combination with Cisplatin, paired with Cisplatin conc. of the same table row
[2] = in combination with Paclitaxel, paired with Paclitaxel conc. of the same table row
[3] = in combination with 5-FU, paired with 5-FU conc. of the same table row

B1: SEQ ID NO: 1: recombinant lectin protein, variant of the S. rolfsii lectin amino acid sequence (reported as Rec-2 in WO 2010/095143) (protein)
chain: TYKITVRVYQTNPDAFFHPVEKTVWKYANGGTWTITDDQHVLTMGGSGTSGTLRFHADNGESFTATFGVHNYKRWCDIVTNLAADETGMVINQQYYSQKNREEARERQLSNYQVKNAKGRNFQIVYTEAEGNDLHANLIIG
IC50 of SEQ ID NO: 1 (T24 cell line; Cisplatin 0 μM): 11.470 µg/mL
IC50 of SEQ ID NO: 1 (T24 cell line; Cisplatin 1 μM): 11.460 µg/mL
IC50 of SEQ ID NO: 1 (T24 cell line; Cisplatin 10 μM): 2.375 µg/mL
IC50 of SEQ ID NO: 1 (T24 cell line; Cisplatin 25 μM): 1.062 µg/mL
IC50 of SEQ ID NO: 1 (T24 cell line; Cisplatin 50 μM): 1.081 µg/mL
IC50 of SEQ ID NO: 1 (T24 cell line; Cisplatin 100 μM): 0.944 µg/mL
IC50 of SEQ ID NO: 1 (T24 cell line; Cisplatin 500 μM): 0.716 µg/mL
IC50 of SEQ ID NO: 1 (T24 cell line; Gemcitabine 0 μM): 10.350 µg/mL
IC50 of SEQ ID NO: 1 (T24 cell line; Gemcitabine 1 μM): 2.242 µg/mL
IC50 of SEQ ID NO: 1 (T24 cell line; Gemcitabine 10 μM): 0.892 µg/mL
IC50 of SEQ ID NO: 1 (T24 cell line; Gemcitabine 50 μM): 0.626 µg/mL
IC50 of SEQ ID NO: 1 (T24 cell line; Gemcitabine 100 μM): 0.155 µg/mL
IC50 of SEQ ID NO: 1 (T24 cell line; Gemcitabine 200 μM): 0.149 µg/mL
IC50 of SEQ ID NO: 1 (T24 cell line; Gemcitabine 300 μM): 0.029 µg/mL
Conc. of SEQ ID NO: 1 showing synergistic effect (T24 cell line; [1]): 5 to 80 µg/mL
Conc. of SEQ ID NO: 1 showing synergistic effect (T24 cell line; in combination with Gemcitabine, paired with Gemcitabine conc. of the same table row): 2.5 to 80 µg/mL
IC50 of SEQ ID NO: 1 (HT-29 cell line; 5-FU 0 μM): 25.470 µg/mL
IC50 of SEQ ID NO: 1 (HT-29 cell line; 5-FU 5 μM): 22.990 µg/mL
IC50 of SEQ ID NO: 1 (HT-29 cell line; 5-FU 10 μM): 6.374 µg/mL
IC50 of SEQ ID NO: 1 (HT-29 cell line; 5-FU 50 μM): 1.667 µg/mL
IC50 of SEQ ID NO: 1 (HT-29 cell line; 5-FU 100 μM): 1.387 µg/mL
IC50 of SEQ ID NO: 1 (HT-29 cell line; 5-FU 150 μM): 1.216 µg/mL
IC50 of SEQ ID NO: 1 (HT-29 cell line; 5-FU 200 μM): 1.334 µg/mL
IC50 of SEQ ID NO: 1 (HT-29 cell line; Irinotecan 0 μM): 18.320 µg/mL
IC50 of SEQ ID NO: 1 (HT-29 cell line; Irinotecan 0.1 μM): 73.480 µg/mL
IC50 of SEQ ID NO: 1 (HT-29 cell line; Irinotecan 1 μM): 36.280 µg/mL
IC50 of SEQ ID NO: 1 (HT-29 cell line; Irinotecan 5 μM): 23.520 µg/mL
IC50 of SEQ ID NO: 1 (HT-29 cell line; Irinotecan 10 μM): 9.995 µg/mL
IC50 of SEQ ID NO: 1 (HT-29 cell line; Irinotecan 25 μM): 8.258 µg/mL
IC50 of SEQ ID NO: 1 (HT-29 cell line; Irinotecan 50 μM): 1.395 µg/mL
Conc. of SEQ ID NO: 1 showing synergistic effect (HT-29 cell line; in combination with Irinotecan, paired with Irinotecan conc. of the same table row): 40 to 80 µg/mL and 20 µg/mL
IC50 of SEQ ID NO: 1 (PA-1 cell line; Cisplatin 0 μM): 12.070 µg/mL
IC50 of SEQ ID NO: 1 (PA-1 cell line; Cisplatin 0.01 μM): 8.520 µg/mL
IC50 of SEQ ID NO: 1 (PA-1 cell line; Cisplatin 0.1 μM): 6.033 µg/mL
IC50 of SEQ ID NO: 1 (PA-1 cell line; Cisplatin 0.5 μM): 0.912 µg/mL
IC50 of SEQ ID NO: 1 (PA-1 cell line; Cisplatin 1 μM): 0.321 µg/mL
IC50 of SEQ ID NO: 1 (PA-1 cell line; Cisplatin 5 μM): 0.0036 µg/mL
IC50 of SEQ ID NO: 1 (PA-1 cell line; Cisplatin […]): 4.455 µg/mL
IC50 of SEQ ID NO: 1 (PA-1 cell line; Paclitaxel 0 nM): 8.822 µg/mL
IC50 of SEQ ID NO: 1 (PA-1 cell line; Paclitaxel 0.01 nM): 5.794 µg/mL
IC50 of SEQ ID NO: 1 (PA-1 cell line; Paclitaxel 0.1 nM): 6.545 µg/mL
IC50 of SEQ ID NO: 1 (PA-1 cell line; Paclitaxel 0.5 nM): 3.917 µg/mL
IC50 of SEQ ID NO: 1 (PA-1 cell line; Paclitaxel 1 nM): 3.031 µg/mL
IC50 of SEQ ID NO: 1 (PA-1 cell line; Paclitaxel 5 nM): 0.709 µg/mL
IC50 of SEQ ID NO: 1 (PA-1 cell line; Paclitaxel […]): 4.893 µg/mL
Conc. of SEQ ID NO: 1 showing synergistic effect (PA-1 cell line; [2]): 1 to 20 µg/mL
IC50 of SEQ ID NO: 1 (KB cell line; 5-FU 0 μM): 17.3800 µg/mL
IC50 of SEQ ID NO: 1 (KB cell line; 5-FU 0.01 μM): 0.5800 µg/mL
IC50 of SEQ ID NO: 1 (KB cell line; 5-FU 0.1 μM): 0.9080 µg/mL
IC50 of SEQ ID NO: 1 (KB cell line; 5-FU 0.5 μM): 0.1141 µg/mL
IC50 of SEQ ID NO: 1 (KB cell line; 5-FU 1 μM): 0.0555 µg/mL
IC50 of SEQ ID NO: 1 (KB cell line; 5-FU 5 μM): 0.0871 µg/mL
IC50 of SEQ ID NO: 1 (KB cell line; 5-FU […]): 0.5010 µg/mL
IC50 of SEQ ID NO: 1 (KB cell line; Cisplatin 0 μM): 38.110 µg/mL
IC50 of SEQ ID NO: 1 (KB cell line; Cisplatin 0.1 μM): 21.190 µg/mL
IC50 of SEQ ID NO: 1 (KB cell line; Cisplatin 0.5 μM): 2.694 µg/mL
IC50 of SEQ ID NO: 1 (KB cell line; Cisplatin 0.75 μM): 0.597 µg/mL
IC50 of SEQ ID NO: 1 (KB cell line; Cisplatin 1.0 μM): 0.316 µg/mL
IC50 of SEQ ID NO: 1 (KB cell line; Cisplatin 1.5 μM): 0.303 µg/mL
IC50 of SEQ ID NO: 1 (KB cell line; Cisplatin […]): 11.240 µg/mL
Conc. of SEQ ID NO: 1 showing synergistic effect (KB cell line; [3]): 5 to 90 µg/mL
Conc. of SEQ ID NO: 1 showing synergistic effect (KB cell line; [1]): 10 to 90 µg/mL and 5 µg/mL
IC50 of SEQ ID NO: 1 (PANC-1 cell line; 5-FU 0 μM): 24.630 µg/mL
IC50 of SEQ ID NO: 1 (PANC-1 cell line; 5-FU 0.1 μM): 686.900 µg/mL
IC50 of SEQ ID NO: 1 (PANC-1 cell line; 5-FU 1 μM): 22.490 µg/mL
IC50 of SEQ ID NO: 1 (PANC-1 cell line; 5-FU 10 μM): 6.842 µg/mL
IC50 of SEQ ID NO: 1 (PANC-1 cell line; 5-FU 50 μM): 1.690 µg/mL
IC50 of SEQ ID NO: 1 (PANC-1 cell line; 5-FU 100 μM): 1.070 µg/mL
IC50 of SEQ ID NO: 1 (PANC-1 cell line; 5-FU […] μM): 0.098 µg/mL
IC50 of SEQ ID NO: 1 (PANC-1 cell line; Gemcitabine 0 μM): 25.060 µg/mL
IC50 of SEQ ID NO: 1 (PANC-1 cell line; Gemcitabine 0.01 μM): 55.490 µg/mL
IC50 of SEQ ID NO: 1 (PANC-1 cell line; Gemcitabine 0.1 μM): 19.450 µg/mL
IC50 of SEQ ID NO: 1 (PANC-1 cell line; Gemcitabine 1 μM): 14.130 µg/mL
IC50 of SEQ ID NO: 1 (PANC-1 cell line; Gemcitabine 5 μM): 12.230 µg/mL
IC50 of SEQ ID NO: 1 (PANC-1 cell line; Gemcitabine 25 μM): 2.044 µg/mL
IC50 of SEQ ID NO: 1 (PANC-1 cell line; Gemcitabine 50 μM): 0.917 µg/mL
Conc. of SEQ ID NO: 1 showing synergistic effect (PANC-1 cell line; [3]): 5 µg/mL and 10 to 80 µg/mL
IC50 of SEQ ID NO: 1 (MDA-MB-231 cell line; Carboplatin 0 μM): 14.310 µg/mL
IC50 of SEQ ID NO: 1 (MDA-MB-231 cell line; Carboplatin 10 μM): 7.188 µg/mL
IC50 of SEQ ID NO: 1 (MDA-MB-231 cell line; Carboplatin 50 μM): 3.584 µg/mL
IC50 of SEQ ID NO: 1 (MDA-MB-231 cell line; Carboplatin 100 μM): 4.290 µg/mL
IC50 of SEQ ID NO: 1 (MDA-MB-231 cell line; Carboplatin 200 μM): 2.073 µg/mL
IC50 of SEQ ID NO: 1 (MDA-MB-231 cell line; Carboplatin 500 μM): 0.523 µg/mL
IC50 of SEQ ID NO: 1 (MDA-MB-231 cell line; Carboplatin 1000 μM): 0.044 µg/mL
IC50 of SEQ ID NO: 1 (MDA-MB-231 cell line; Paclitaxel 0 nM): 19.800 µg/mL
IC50 of SEQ ID NO: 1 (MDA-MB-231 cell line; Paclitaxel 0.001 nM): 25.370 µg/mL
IC50 of SEQ ID NO: 1 (MDA-MB-231 cell line; Paclitaxel 0.01 nM): 21.220 µg/mL
IC50 of SEQ ID NO: 1 (MDA-MB-231 cell line; Paclitaxel 0.1 nM): 13.700 µg/mL
IC50 of SEQ ID NO: 1 (MDA-MB-231 cell line; Paclitaxel 1 nM): 8.720 µg/mL
IC50 of SEQ ID NO: 1 (MDA-MB-231 cell line; Paclitaxel 5 nM): 5.775 µg/mL
IC50 of SEQ ID NO: 1 (MDA-MB-231 cell line; Paclitaxel 10 nM): 2.248 µg/mL
Conc. of SEQ ID NO: 1 showing synergistic effect (MDA-MB-231 cell line; in combination with Carboplatin, paired with Carboplatin conc. of the same table row): 5 to 80 µg/mL and 2.5 µg/mL
Conc. of SEQ ID NO: 1 showing synergistic effect (MDA-MB-231 cell line; [2]): 20 to 80 µg/mL and 10 µg/mL
